This is an account of results in patent US6573076B1, “Gene, group of genes, and novel β-glucosidase” (Ajinomoto Co., Inc., priority 1997, dated 2003).

The format of series [1] is physicochemical, Acetobacter xylinum subsp. sucrofermentans BPR 2001. The text has this: The pH stability of β-glucosidase (G3ase) was studied. […] An optimum pH was about 5.5. The thermal stability of β-glucosidase (G3ase) was also studied.
Series [2] is described as follows: Specific activity of purified β-glucosidase (G3ase), glucose release from cellotriose. Type of series: biochemical, Acetobacter xylinum subsp. sucrofermentans BPR 2001. The conditions noted are these: purified sample; 1 U = 1 μmol glucose from G3 at 30° C. for 2 hr. On the procedure:
Acetobacter xylinum subsp. sucrofermentans BPR 2001 strain was cultured in CSL-Fru medium using a jar fermenter (inner volume: 3 L, culture medium volume: 1.8 L) at 30° C. and pH5 for 68 hours. The resulting culture medium (about […] in total) was subjected to centrifugation to give its supernatant (3,600 ml). The resulting supernatant was subjected to salting-out with 60%-saturated ammonium sulfate, and the resulting precipitate was collected by centrifugation. The collected precipitate was solubilized into distilled water of 352 ml and dialyzed against distilled water (15 L). The resulting precipitate was collected and extracted three times with 20 mM sodium acetate buffer (pH5.5) containing 0.15 M NaCl. G3ase activity was found in the resulting extract. The extract was subjected to CM-Toyopearl 650M column (Tosoh Co. Ltd.; 3.2 cm in diameter, 13.3 cm in length) equilibrated with 20 mM sodium acetate buffer (pH5.5) containing 0.15 M NaCl to absorb the G3ase activity. […]
After reaction at 30° C. for 2 hr, a reaction solution (300 μl) of a glucose-measuring kit (Glucose CII test Wako: Wako Pure Chemical Industries, Ltd.) was added to the mixture, and reacted for 15 min at a room temperature, followed by the determination of an amount of glucose based on absorbance at 505 nm.

Series [3] can be described thus: Isoelectric point of β-glucosidase (G3ase) by IEF-PAGE. Type of series: physicochemical, Acetobacter xylinum subsp. sucrofermentans BPR 2001. The text has this: The molecular weight of β-glucosidase (G3ase) determined by SDS-PAGE was about 81,200 (FIG. 2). Its isoelectric point (pI) determined by IEF-PAGE was about 6.0 (FIG. 3).

Bounds are passed on as bounds.

B1: β-glucosidase (G3ase): β-glucosidase purified from Acetobacter xylinum subsp. sucrofermentans BPR 2001, amino acid sequence SEQ ID NO:7 (protein, listed as Acetobacter xylinum)
chain: MRLSRKIFLLSAVACGMALAQAPAFARHAHDGGGDQADARARQVLASMSLEDKMSLLFSVDGGGFNGSVAPPGGLGSAAYLRAPQGSGLPDLQISDAGLGVRNPAHIRRNGEAVSLPSGQSTASTWDMDMARQAGVMIGREAWQSGFNILLGGGADLTRDPRGGRNFEYAGEDPLQTGRMVGSTIAGVQSQHVISTLKHYAMNDLETSRMTMSADIDPVAMRESDLLGFEIALETGHPGAVMCSYNRVNDLYACENPYLLNKTLKQDWHYPGFVMSDWGATHSSARAALAGLDQESAGDHTDARPYFRTLLAADVKAGRVPEARINDMAERVVRALFAAGLVDHPAQRGPLDVVTDTLVAQKDEEEGAVLLRNQGNILPLSPTARIAVIGGHADAGVISGGGSSQVDPIGGEAVKGPGKKEWPGDPVYFPSSPLKAMQAEAPGARITYDPGTSIASAVRAARAADVVVVYATQFTFEGMDAPSMHLDDNADALITAVAAANPRTVVVMETGDPVLMPWNSSVAGVLEAWFPGSGGGPAIARLLFGKVAPSGHLTMTFPQAESQLAHPDIAGVTADNVFEMQFHTDQELVYDEGSDVGYRWFDRNHFKPLYPFGYGLTYTTFSTDGLKVTERHGQVTATFNVHNTGTRAGVDVPQVYVGLPDGGARRLAGWQRISLAPGESRQVSVQLEPRLLAHFDGKHDRWSVPSGTFRVWLASCATDDSQQTTMHLHGRTMAP
modifications: n at positions 15741 and 15767 may be a, g, t, or c
B1: in series [1], the “optimum pH” value is on record as “about 5.5” and the optimum temperature entry was “about 40 °C”. In series [1] (30-minute treatment at pH 5.5), the “temperature at which inactivated” value was no less than 50 °C and the “temperature at which stable” value is no more than 30 °C. For the same molecule, in series [1] (3 h), the “remaining activity (pH stability)” value is reported as no less than 80%. In series [2], the Specific activity is on record as 840 U/mg-portein. In addition, the “isoelectric point (pI)” value in series [3] is reported as “about 6.0”.
